Laboratory results taken from patent US20220143148A1, “COMPOSITIONS AND METHODS FOR MODULATING CGRP SIGNALING TO REGULATE INTESTINAL INNATE LYMPHOID CELLS” (The Broad Institute, Inc., priority 2019, published 2022).

Test system: small intestinal immune cells
Test: Droplet-based scRNA-seq of small intestinal immune cells (LP and PP), OVA vs PBS, clustering and differential expression
Assay type: in vivo, mouse
Excerpt: To comprehensively characterize small intestinal immune cells, Applicants generated scRNA-Seq profiles for 58,067 immune cells collected from lamina propria (LP) and Peyer's patch (PP) regions at steady state and after induction of a type 2 inflammatory reaction to ovalbumin (OVA) (Brandt et al., 2003) (FIGS. 1A and 8A). To ensure sufficient representation of rare cells, Applicants combined a normalization strategy—removing by flow sorting either a portion of IgD+ naïve B cells, which are the most abundant cell type in PPs, or all CD19+ and CD3+ T cells (FIG. 8B, Methods)—with profiling of a sufficiently large number of cells number (P>0.99 to recover at least 15 cells from each cluster, Methods) by massively parallel scRNA-seq (Haber et al., 2017) (Methods). Applicants obtained 36,797 and 21,270 high quality cells passing initial filtering (Methods) from PP and LP regions, respectively.
Overall, Applicants annotated 27 cell subsets across the two compartments, spanning T cells, B cells, ILCs, dendritic cells (DCs), myeloid cells and stromal cells, in frequencies ranging from 0.07% to 14%. Briefly, Applicants first partitioned the cells from the PP regions by unsupervised clustering (Methods) into 46 clusters, retained the 97% of cells that were robustly assigned cell identities in each cluster (Methods), assigned the cells from the LP regions to the 46 clusters using a classifier (Methods), and visualized the data with scvis (Ding et al., 2018), a deep generative model-based method (FIGS. 1B and 8C, Methods). Next, Applicants identified genes that were differentially expressed between the cells in each cluster and the remaining cells (Table 1, Methods), as well as between pairs of clusters (Table 2), to elucidate identities of similar cell types/states. Applicants excluded from downstream analysis clusters mostly consisting of contaminants from epithelium, likely doublets, or cells with a small number of Unique Molecular Identifiers (UMIs) (FIGS. 1C and 8D), or lacking distinct markers (Methods). Altogether, Applicants retained 27 clusters spanning 85% of the cells and each associated with distinct marker genes (FIG. 8E, Methods).
To induce allergic reaction to OVA, 6 to 7 weeks old mice were sensitized twice, two weeks apart, with 50 μg of OVA plus 1 mg of aluminum potassium sulfate adjuvant via intraperitoneal injection. Two weeks later, mice were orally administered with 50 mg of OVA on every other day for a total of five times. 1 μg of α-CGRP peptide was administered simultaneously when indicated. Mice were deprived of food for 3-4 hours in cages with wood chip bedding for limiting antigen degradation in the stomach before each intragastric challenge.
Isolation of cells from Peyer's patches (PPs). Peyer's patches (PPs) were carefully dissected from the small intestine under a stereo microscope using a fine scissor, pierced once with a fine forcep. Tissues were digested in freshly made digestion buffer (RPMI-1640 containing 100 μg/ml Liberase™ and 50 μg/ml DNase I at 37° C. on a roto-mixer. After 15 min, tissues were very gently mixed using a 1 ml pipette. The supernatant was collected and added to ice-cold MACS buffer (pH 7.4; PBS plus 2% FCS and 2 mM EDTA). Pre-warmed (37° C.) fresh digestion buffer was added to the remaining tissues. After rotation at 37° C. for 15 min, the mixture was vigorously mixed using a 1 ml pipette for 1 min. Supernatants from the two steps were combined and passed through 70 μm filters and stained for FACS (below).
Isolation of cells from the lamina propria (LP). The small intestines were opened longitudinally and washed in ice-cold PBS. For scRNA-seq, roughly 0.5 cm of fragments from each of the distal, middle and proximal regions without visible PPs were collected. Epithelial cells were dissociated by tissue rotation in pre-warmed (37° C.) PBS containing 10 mM EDTA at 37° C. for 15 min, followed by additional incubation on ice for 15 min. Tissues were then shaken vigorously. […]

B1: OVA (protein, UniProt P01012 2-386, looked up)
Ovalbumin: GSIGAASMEFCFDVFKELKVHHANENIFYCPIAIMSALAMVYLGAKDSTRTQINKVVRFDKLPGFGDSIEAQCGTSVNVHSSLRDILNQITKPNDVYSFSLASRLYAEERYPILPEYLQCVKELYRGGLEPINFQTAADQARELINSWVESQTNGIIRNVLQPSSVDSQTAMVLVNAIVFKGLWEKAFKDEDTQAMPFRVTEQESKPVQMMYQIGLFRVASMASEKMKILELPFASGTMSMLVLLPDEVSGLEQLESIINFEKLTEWTSSNVMEERKIKVYLPRMKMEEKYNLTSVLMAMGITDVFSSSANLSGISSAESLKISQAVHAAHAEINEAGREVVGSAEAGVDAASVSEEFRADHPFLFCIKHIATNAVLFFGRCVSP
Cluster ID 5, PP, OVA vs PBS
  Txnip: LN (average fold change): 0.660
  Uba52: LN (average fold change): 0.277
  Ucp2: LN (average fold change): 0.325
  Wdr89: LN (average fold change): 0.291
  Zfp36l2: LN (average fold change): 0.865
Cluster ID 6, PP
  AY036118: percentage of expressing cells in OVA-treated group: 0.426
  Atf3: percentage of expressing cells in OVA-treated group: 0.091
  Atp5h: percentage of expressing cells in OVA-treated group: 0.963
  B3gnt8: percentage of expressing cells in OVA-treated group: 0.486
  Bcl2l11: percentage of expressing cells in OVA-treated group: 0.257
  Bhlhe40: percentage of expressing cells in OVA-treated group: 0.465
  Bloc1s2: percentage of expressing cells in OVA-treated group: 0.784
  Btg2: percentage of expressing cells in OVA-treated group: 0.801
  Ccl4: percentage of expressing cells in OVA-treated group: 0.848
  Cd68: percentage of expressing cells in OVA-treated group: 0.861
  Cd83: percentage of expressing cells in OVA-treated group: 0.092
  Cdv3: percentage of expressing cells in OVA-treated group: 0.414
  Clcn3: percentage of expressing cells in OVA-treated group: 0.35
  Clec10a: percentage of expressing cells in OVA-treated group: 0.532
  Clec2d: percentage of expressing cells in OVA-treated group: 0.578
  Coq10b: percentage of expressing cells in OVA-treated group: 0.242
  Crem: percentage of expressing cells in OVA-treated group: 0.34
  Cxcr3: percentage of expressing cells in OVA-treated group: 0.516
  Cxcr4: percentage of expressing cells in OVA-treated group: 0.561
  D13Ertd608e: percentage of expressing cells in OVA-treated group: 0.947
  Ddit4: percentage of expressing cells in OVA-treated group: 0.221
  Ddx3x: percentage of expressing cells in OVA-treated group: 0.436
  Defa24: percentage of expressing cells in OVA-treated group: 0.099
  Dnajc7: percentage of expressing cells in OVA-treated group: 0.987
  Dusp1: percentage of expressing cells in OVA-treated group: 0.406
  Dusp5: percentage of expressing cells in OVA-treated group: 0.668
  Dusp18: percentage of expressing cells in OVA-treated group: 0.091
  Egr1: percentage of expressing cells in OVA-treated group: 0.143
  Emp3: percentage of expressing cells in OVA-treated group: 0.936
  Erdr1: percentage of expressing cells in OVA-treated group: 0.149
  Fabp2: percentage of expressing cells in OVA-treated group: 0.048
  Fam46c: percentage of expressing cells in OVA-treated group: 0.221
  Filip1l: percentage of expressing cells in OVA-treated group: 0.384
  Fkbp5: percentage of expressing cells in OVA-treated group: 0.161
  Fosb: percentage of expressing cells in OVA-treated group: 0.332
  Fosl2: percentage of expressing cells in OVA-treated group: 0.141
  Foxp1: percentage of expressing cells in OVA-treated group: 0.719
  Fyn: percentage of expressing cells in OVA-treated group: 0.756
  Gapdh: percentage of expressing cells in OVA-treated group: 0.911
  Gapt: percentage of expressing cells in OVA-treated group: 0.657
  Gnb1: percentage of expressing cells in OVA-treated group: 0.515
  Grasp: percentage of expressing cells in OVA-treated group: 0.193
  Gtf2i: percentage of expressing cells in OVA-treated group: 0.542
  H2-Aa: percentage of expressing cells in OVA-treated group: 0.947
  H2-Ab1: percentage of expressing cells in OVA-treated group: 0.949
  H2-Eb1: percentage of expressing cells in OVA-treated group: 0.907
  H2afj: percentage of expressing cells in OVA-treated group: 0.935
  Hes6: percentage of expressing cells in OVA-treated group: 0.474
  Hist1h1c: percentage of expressing cells in OVA-treated group: 0.522
  Hist2h4: percentage of expressing cells in OVA-treated group: 0.165
  Ier2: percentage of expressing cells in OVA-treated group: 0.432
  Ier5: percentage of expressing cells in OVA-treated group: 0.937
  Ifi30: percentage of expressing cells in OVA-treated group: 0.883
  Ifrd1: percentage of expressing cells in OVA-treated group: 0.241
  Igha: percentage of expressing cells in OVA-treated group: 0.681
  Igkc: percentage of expressing cells in OVA-treated group: 0.944
  Itpkb: percentage of expressing cells in OVA-treated group: 0.296
  Jun: percentage of expressing cells in OVA-treated group: 0.769
  Junb: percentage of expressing cells in OVA-treated group: 0.745
  Jund: percentage of expressing cells in OVA-treated group: 0.92
  Kdm6b: percentage of expressing cells in OVA-treated group: 0.307
  Klf4: percentage of expressing cells in OVA-treated group: 0.147
  Klk1: percentage of expressing cells in OVA-treated group: 0.964
  Kmt2e: percentage of expressing cells in OVA-treated group: 0.596
  Lag3: percentage of expressing cells in OVA-treated group: 0.605
  Lgals1: percentage of expressing cells in OVA-treated group: 0.985
  Lmnb1: percentage of expressing cells in OVA-treated group: 0.189
  Ly6c1: percentage of expressing cells in OVA-treated group: 0.991
  Lyz1: percentage of expressing cells in OVA-treated group: 0.035
  Mcl1: percentage of expressing cells in OVA-treated group: 0.459
